Experimental data reported in paper PMC9482650, “Quantitative fragmentomics allow affinity mapping of interactomes” (Nature Communications, 2022).

Assays:
Experiment in all cases: holdup assay
Parameters in all cases: key: below the threshold = too weak to quantify, mostly under pKd 3.1 to 4
Settings in all cases: plain residues with an end cap or a label only (N-terminal biotin on a linker: ado-ado)
NHERF3_1, Q5T2W1 = molecular target: T1, NHERF3_1, Q5T2W1
T1 sequence (Q5T2W1 4-100, limits assumed, looked up): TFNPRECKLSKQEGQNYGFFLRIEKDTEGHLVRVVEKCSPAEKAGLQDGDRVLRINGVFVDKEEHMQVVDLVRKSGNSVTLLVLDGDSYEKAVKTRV

FRMPD3, Q5JV73 = molecular target: FRMPD3, Q5JV73
APBA2_1, Q99767 = molecular target: T2, APBA2_1, Q99767
T2 sequence (Q99767 563-664, limits assumed, looked up): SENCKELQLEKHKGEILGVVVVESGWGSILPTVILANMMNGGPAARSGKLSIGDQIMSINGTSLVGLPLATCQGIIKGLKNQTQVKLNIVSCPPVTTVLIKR

PTPN13_1, Q12923 = molecular target: T3, PTPN13_1, Q12923
T3 sequence (Q12923 1088-1188, limits assumed, looked up): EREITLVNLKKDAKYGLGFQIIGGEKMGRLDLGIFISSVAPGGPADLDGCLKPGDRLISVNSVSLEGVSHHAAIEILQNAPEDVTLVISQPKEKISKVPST

MPDZ_10, O75970 = molecular target: T4, MPDZ_10, O75970
T4 sequence (O75970 1624-1722, limits assumed, looked up): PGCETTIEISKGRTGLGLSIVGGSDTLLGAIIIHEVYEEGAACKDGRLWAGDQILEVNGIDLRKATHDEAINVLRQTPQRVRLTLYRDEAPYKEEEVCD

MAGI1_1, Q96QZ7 = molecular target: MAGI1_1, Q96QZ7
GRIP2_6, Q9C0E4 = molecular target: GRIP2_6, Q9C0E4
LAP2, Q96RT1 = molecular target: LAP2, Q96RT1
HTRA2, O43464 = molecular target: HTRA2, O43464
LNX1_2, Q8TBB1 = molecular target: LNX1_2, Q8TBB1
GORASP1, Q9BQQ3 = molecular target: GORASP1, Q9BQQ3
APBA2_2, Q99767 = molecular target: T5, APBA2_2, Q99767
T5 sequence (Q99767 654-744, limits assumed, looked up): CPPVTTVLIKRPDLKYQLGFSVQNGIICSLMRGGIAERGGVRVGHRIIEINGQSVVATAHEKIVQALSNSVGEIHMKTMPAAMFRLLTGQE

GRIP2_3, Q9C0E4 = molecular target: GRIP2_3, Q9C0E4
LNX1_1, Q8TBB1 = molecular target: LNX1_1, Q8TBB1
NHERF2_2, Q15599 = molecular target: NHERF2_2, Q15599
PARD3B_1, Q8TEW8 = molecular target: T6, PARD3B_1, Q8TEW8
T6 sequence (Q8TEW8 196-299, limits assumed, looked up): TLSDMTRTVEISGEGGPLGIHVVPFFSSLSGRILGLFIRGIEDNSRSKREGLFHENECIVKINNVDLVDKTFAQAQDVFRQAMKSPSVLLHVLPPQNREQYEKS

DLG4_1, P78352 = molecular target: DLG4_1, P78352
DFNB31_1, Q9P202 = molecular target: T7, DFNB31_1, Q9P202
T7 sequence (Q9P202 135-233, limits assumed, looked up): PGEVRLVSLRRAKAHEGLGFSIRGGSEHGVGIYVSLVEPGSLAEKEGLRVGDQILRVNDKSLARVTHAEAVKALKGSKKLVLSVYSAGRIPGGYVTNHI

TIAM2, Q8IVF5 = molecular target: T8, TIAM2, Q8IVF5
T8 sequence (Q8IVF5 885-986, limits assumed, looked up): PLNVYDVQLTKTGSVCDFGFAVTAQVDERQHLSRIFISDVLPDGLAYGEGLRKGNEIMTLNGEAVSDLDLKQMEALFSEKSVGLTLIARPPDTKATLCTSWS

Inadl_2, Q8NI35 = molecular target: Inadl_2, Q8NI35
PDZRN3_1, Q9UPQ7 = molecular target: T9, PDZRN3_1, Q9UPQ7
T9 sequence (Q9UPQ7 244-349, limits assumed, looked up): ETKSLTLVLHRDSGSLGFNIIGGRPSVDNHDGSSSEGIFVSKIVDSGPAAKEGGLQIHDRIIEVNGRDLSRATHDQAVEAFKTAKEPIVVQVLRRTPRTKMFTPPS

PARD3_3, Q8TEW0 = molecular target: PARD3_3, Q8TEW0
FRMPD2_3, Q68DX3 = molecular target: FRMPD2_3, Q68DX3
GRIP2_5, Q9C0E4 = molecular target: GRIP2_5, Q9C0E4
GRIP1_2, Q9Y3R0 = molecular target: T10, GRIP1_2, Q9Y3R0
T10 sequence (Q9Y3R0 145-248, limits assumed, looked up): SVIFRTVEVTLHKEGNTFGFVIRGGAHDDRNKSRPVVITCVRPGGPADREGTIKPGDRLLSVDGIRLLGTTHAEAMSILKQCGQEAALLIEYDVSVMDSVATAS

SNTG2, Q9NY99 = molecular target: T11, SNTG2, Q9NY99
T11 sequence (Q9NY99 68-166, limits assumed, looked up): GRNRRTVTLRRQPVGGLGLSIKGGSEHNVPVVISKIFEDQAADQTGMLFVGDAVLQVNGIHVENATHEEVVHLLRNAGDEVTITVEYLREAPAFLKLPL

GRIP2_4, Q9C0E4 = molecular target: GRIP2_4, Q9C0E4
Sequence of GRIP2_4, Q9C0E4 (Q9C0E4 446-548): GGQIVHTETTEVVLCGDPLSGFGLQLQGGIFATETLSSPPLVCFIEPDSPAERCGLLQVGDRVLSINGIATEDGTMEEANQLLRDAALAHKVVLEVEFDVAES

Sequence of LNX1_1, Q8TBB1 (Q8TBB1 261-371): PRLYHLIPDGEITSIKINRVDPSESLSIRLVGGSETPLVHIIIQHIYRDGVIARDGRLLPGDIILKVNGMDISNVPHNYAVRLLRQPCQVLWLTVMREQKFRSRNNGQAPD
Sequence of GORASP1, Q9BQQ3 (Q9BQQ3 1-208): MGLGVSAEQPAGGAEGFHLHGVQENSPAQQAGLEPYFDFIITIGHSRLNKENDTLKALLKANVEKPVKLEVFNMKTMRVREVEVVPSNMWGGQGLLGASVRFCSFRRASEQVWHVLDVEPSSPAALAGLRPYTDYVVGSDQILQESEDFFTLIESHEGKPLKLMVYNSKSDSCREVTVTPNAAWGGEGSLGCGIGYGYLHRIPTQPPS
Sequence of GRIP2_3, Q9C0E4 (Q9C0E4 238-339): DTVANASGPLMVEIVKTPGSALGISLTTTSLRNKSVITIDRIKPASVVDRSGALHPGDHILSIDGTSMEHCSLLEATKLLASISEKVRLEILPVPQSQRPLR
Sequence of PARD3_3, Q8TEW0 (Q8TEW0 582-685): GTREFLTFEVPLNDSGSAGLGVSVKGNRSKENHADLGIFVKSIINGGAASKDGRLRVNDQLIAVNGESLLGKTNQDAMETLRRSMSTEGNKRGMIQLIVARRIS
Sequence of GRIP2_5, Q9C0E4 (Q9C0E4 544-642): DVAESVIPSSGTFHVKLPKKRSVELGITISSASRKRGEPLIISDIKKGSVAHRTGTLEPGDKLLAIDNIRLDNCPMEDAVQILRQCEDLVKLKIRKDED
Sequence of HTRA2, O43464 (O43464 355-458): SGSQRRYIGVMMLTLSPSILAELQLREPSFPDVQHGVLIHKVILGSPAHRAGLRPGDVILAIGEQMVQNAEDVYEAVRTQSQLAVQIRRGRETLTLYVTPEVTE
Sequence of FRMPD3, Q5JV73 (Q5JV73 12-100): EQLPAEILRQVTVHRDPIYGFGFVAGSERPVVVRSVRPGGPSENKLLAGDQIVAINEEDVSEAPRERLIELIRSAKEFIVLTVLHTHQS
Sequence of GRIP2_6, Q9C0E4 (Q9C0E4 648-740): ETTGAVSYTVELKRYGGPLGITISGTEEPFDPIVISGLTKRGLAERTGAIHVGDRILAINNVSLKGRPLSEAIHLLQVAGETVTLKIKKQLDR
Sequence of DLG4_1, P78352 (P78352 62-152): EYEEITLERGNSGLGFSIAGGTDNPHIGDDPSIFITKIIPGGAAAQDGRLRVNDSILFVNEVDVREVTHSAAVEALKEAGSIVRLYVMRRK
Sequence of Inadl_2, Q8NI35 (Q8NI35 238-335): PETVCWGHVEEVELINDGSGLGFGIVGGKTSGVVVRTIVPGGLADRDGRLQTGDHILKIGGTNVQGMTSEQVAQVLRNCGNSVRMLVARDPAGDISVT
Sequence of LNX1_2, Q8TBB1 (Q8TBB1 371-470): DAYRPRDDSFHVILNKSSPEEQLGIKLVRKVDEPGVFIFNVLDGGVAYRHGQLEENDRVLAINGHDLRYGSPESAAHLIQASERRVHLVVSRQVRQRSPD
Sequence of MAGI1_1, Q96QZ7 (Q96QZ7 1-106): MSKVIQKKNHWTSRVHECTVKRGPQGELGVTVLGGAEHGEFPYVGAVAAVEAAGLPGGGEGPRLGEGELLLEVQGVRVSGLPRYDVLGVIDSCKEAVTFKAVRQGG
Sequence of NHERF2_2, Q15599 (Q15599 142-238): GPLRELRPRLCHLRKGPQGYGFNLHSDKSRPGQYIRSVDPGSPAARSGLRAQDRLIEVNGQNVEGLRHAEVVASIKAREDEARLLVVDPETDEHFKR
Sequence of LAP2, Q96RT1 (Q96RT1 other isoform, or with tags, fused parts or gaps): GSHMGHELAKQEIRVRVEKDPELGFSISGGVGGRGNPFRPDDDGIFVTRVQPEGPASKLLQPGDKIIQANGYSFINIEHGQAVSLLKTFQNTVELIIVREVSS
Sequence of FRMPD2_3, Q68DX3 (Q68DX3 1073-1166): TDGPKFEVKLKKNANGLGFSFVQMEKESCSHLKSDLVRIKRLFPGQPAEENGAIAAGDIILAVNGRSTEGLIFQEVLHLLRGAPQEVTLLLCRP

Binder: PSVYSRSQYV [CLDN8, P56748]
- pKd (NHERF3_1, Q5T2W1): 5.34
- pKd (FRMPD3, Q5JV73): below the threshold
- pKd (APBA2_1, Q99767): below the threshold
- pKd (PTPN13_1, Q12923): below the threshold
- pKd (MPDZ_10, O75970): below the threshold
- pKd (MAGI1_1, Q96QZ7): below the threshold
- pKd (GRIP2_6, Q9C0E4): 3.48
- pKd (LAP2, Q96RT1): below the threshold
- pKd (HTRA2, O43464): 4.46
- pKd (LNX1_2, Q8TBB1): 3.7
- pKd (GORASP1, Q9BQQ3): 4.55
- pKd (APBA2_2, Q99767): below the threshold
- pKd (GRIP2_3, Q9C0E4): below the threshold
- pKd (LNX1_1, Q8TBB1): below the threshold
- pKd (NHERF2_2, Q15599): below the threshold
- pKd (PARD3B_1, Q8TEW8): 3.58
- pKd (DLG4_1, P78352): below the threshold
- pKd (DFNB31_1, Q9P202): below the threshold
- pKd (TIAM2, Q8IVF5): 4.1
- pKd (Inadl_2, Q8NI35): below the threshold
- pKd (PDZRN3_1, Q9UPQ7): below the threshold
- pKd (PARD3_3, Q8TEW0): below the threshold
- pKd (FRMPD2_3, Q68DX3): below the threshold
- pKd (GRIP2_5, Q9C0E4): below the threshold
- pKd (GRIP1_2, Q9Y3R0): below the threshold
- pKd (SNTG2, Q9NY99): below the threshold
- pKd (GRIP2_4, Q9C0E4): below the threshold

Binder: GDSSRKEYFI [GYPC, P04921]
- pKd (NHERF3_1, Q5T2W1): 3.69
- pKd (FRMPD3, Q5JV73): below the threshold
- pKd (APBA2_1, Q99767): 3.55
- pKd (PTPN13_1, Q12923): below the threshold
- pKd (MPDZ_10, O75970): below the threshold
- pKd (MAGI1_1, Q96QZ7): below the threshold
- pKd (GRIP2_6, Q9C0E4): 4.67
- pKd (LAP2, Q96RT1): 3.62
- pKd (HTRA2, O43464): 4.1
- pKd (LNX1_2, Q8TBB1): below the threshold
- pKd (GORASP1, Q9BQQ3): 4.33
- pKd (APBA2_2, Q99767): below the threshold
- pKd (GRIP2_3, Q9C0E4): below the threshold
- pKd (LNX1_1, Q8TBB1): below the threshold
- pKd (NHERF2_2, Q15599): below the threshold
- pKd (PARD3B_1, Q8TEW8): 4.39
- pKd (DLG4_1, P78352): below the threshold
- pKd (DFNB31_1, Q9P202): below the threshold
- pKd (TIAM2, Q8IVF5): 4.23
- pKd (Inadl_2, Q8NI35): 4.99
- pKd (PDZRN3_1, Q9UPQ7): below the threshold
- pKd (PARD3_3, Q8TEW0): 4.9
- pKd (FRMPD2_3, Q68DX3): 3.76
- pKd (GRIP2_5, Q9C0E4): below the threshold
- pKd (GRIP1_2, Q9Y3R0): below the threshold
- pKd (SNTG2, Q9NY99): below the threshold
- pKd (GRIP2_4, Q9C0E4): below the threshold

Binder: SRPHTNETSL [MCC, P23508]
- pKd (NHERF3_1, Q5T2W1): 5.29
- pKd (FRMPD3, Q5JV73): below the threshold
- pKd (APBA2_1, Q99767): below the threshold
- pKd (PTPN13_1, Q12923): below the threshold
- pKd (MPDZ_10, O75970): below the threshold
- pKd (MAGI1_1, Q96QZ7): below the threshold
- pKd (GRIP2_6, Q9C0E4): below the threshold
- pKd (LAP2, Q96RT1): below the threshold
- pKd (HTRA2, O43464): below the threshold
- pKd (LNX1_2, Q8TBB1): below the threshold
- pKd (GORASP1, Q9BQQ3): below the threshold
- pKd (APBA2_2, Q99767): below the threshold
- pKd (GRIP2_3, Q9C0E4): below the threshold
- pKd (LNX1_1, Q8TBB1): below the threshold
- pKd (NHERF2_2, Q15599): 4.49
- pKd (PARD3B_1, Q8TEW8): 3.7
- pKd (DLG4_1, P78352): below the threshold
- pKd (DFNB31_1, Q9P202): 4.28
- pKd (TIAM2, Q8IVF5): below the threshold
- pKd (Inadl_2, Q8NI35): below the threshold
- pKd (PDZRN3_1, Q9UPQ7): 4.99
- pKd (PARD3_3, Q8TEW0): below the threshold
- pKd (FRMPD2_3, Q68DX3): below the threshold
- pKd (GRIP2_5, Q9C0E4): below the threshold
- pKd (GRIP1_2, Q9Y3R0): below the threshold
- pKd (SNTG2, Q9NY99): 4.66
- pKd (GRIP2_4, Q9C0E4): below the threshold

Binder: GSQSQVETEA [FKBP4, Q02790]
- pKd (NHERF3_1, Q5T2W1): below the threshold
- pKd (FRMPD3, Q5JV73): below the threshold
- pKd (APBA2_1, Q99767): below the threshold
- pKd (PTPN13_1, Q12923): below the threshold
- pKd (MPDZ_10, O75970): below the threshold
- pKd (MAGI1_1, Q96QZ7): below the threshold
- pKd (GRIP2_6, Q9C0E4): below the threshold
- pKd (LAP2, Q96RT1): below the threshold
- pKd (HTRA2, O43464): below the threshold
- pKd (LNX1_2, Q8TBB1): below the threshold
- pKd (GORASP1, Q9BQQ3): below the threshold
- pKd (APBA2_2, Q99767): below the threshold
- pKd (GRIP2_3, Q9C0E4): below the threshold
- pKd (LNX1_1, Q8TBB1): below the threshold
- pKd (NHERF2_2, Q15599): below the threshold
- pKd (PARD3B_1, Q8TEW8): below the threshold
- pKd (DLG4_1, P78352): below the threshold
- pKd (DFNB31_1, Q9P202): below the threshold
- pKd (TIAM2, Q8IVF5): 4.04
- pKd (Inadl_2, Q8NI35): below the threshold
- pKd (PDZRN3_1, Q9UPQ7): below the threshold
- pKd (PARD3_3, Q8TEW0): below the threshold
- pKd (FRMPD2_3, Q68DX3): below the threshold
- pKd (GRIP2_5, Q9C0E4): below the threshold
- pKd (GRIP1_2, Q9Y3R0): below the threshold
- pKd (SNTG2, Q9NY99): below the threshold
- pKd (GRIP2_4, Q9C0E4): below the threshold

Binder: ATKDKKITTV [EXOC4, Q96A65]
- pKd (NHERF3_1, Q5T2W1): below the threshold
- pKd (FRMPD3, Q5JV73): below the threshold
- pKd (APBA2_1, Q99767): below the threshold
- pKd (PTPN13_1, Q12923): below the threshold
- pKd (MPDZ_10, O75970): 3.95
- pKd (MAGI1_1, Q96QZ7): 3.61
- pKd (GRIP2_6, Q9C0E4): below the threshold
- pKd (LAP2, Q96RT1): 3.54
- pKd (HTRA2, O43464): below the threshold
- pKd (LNX1_2, Q8TBB1): 4.1
- pKd (GORASP1, Q9BQQ3): 3.76
- pKd (APBA2_2, Q99767): below the threshold
- pKd (GRIP2_3, Q9C0E4): 3.51
- pKd (LNX1_1, Q8TBB1): 3.69
- pKd (NHERF2_2, Q15599): 3.6
- pKd (PARD3B_1, Q8TEW8): below the threshold
- pKd (DLG4_1, P78352): 5.25
- pKd (DFNB31_1, Q9P202): 3.58
- pKd (TIAM2, Q8IVF5): below the threshold
- pKd (Inadl_2, Q8NI35): 3.51
- pKd (PDZRN3_1, Q9UPQ7): 3.52
- pKd (PARD3_3, Q8TEW0): below the threshold
- pKd (FRMPD2_3, Q68DX3): below the threshold
- pKd (GRIP2_5, Q9C0E4): 3.49
- pKd (GRIP1_2, Q9Y3R0): below the threshold
- pKd (SNTG2, Q9NY99): 3.92
- pKd (GRIP2_4, Q9C0E4): below the threshold
